Test results: publication PMC3223204, “Implantation Serine Proteinase 1 Exhibits Mixed Substrate Specificity that Silences Signaling via Proteinase-Activated Receptors” (PLoS ONE, 2011)

Biological target: T1, rat PAR2 (Rattus norvegicus, UniProt Q63645)
T1 construct: expressed in transfected cells; host or cells: KNRK (Kirsten virus-transformed normal rat kidney) cells
T1 sequence (Q63645 26-397): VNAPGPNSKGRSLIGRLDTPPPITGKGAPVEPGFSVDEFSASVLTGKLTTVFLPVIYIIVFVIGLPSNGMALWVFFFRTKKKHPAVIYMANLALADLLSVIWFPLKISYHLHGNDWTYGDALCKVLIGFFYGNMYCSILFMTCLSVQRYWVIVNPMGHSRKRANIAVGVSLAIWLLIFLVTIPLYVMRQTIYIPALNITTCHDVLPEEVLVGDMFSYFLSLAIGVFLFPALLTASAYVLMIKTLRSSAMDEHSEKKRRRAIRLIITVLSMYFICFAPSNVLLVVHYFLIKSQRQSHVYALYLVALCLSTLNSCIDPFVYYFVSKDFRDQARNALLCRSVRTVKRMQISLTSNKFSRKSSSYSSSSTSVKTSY
Assay: Calcium signaling assay, PAR2 activation/disarming in KNRK cells
Format: cell-based
Source text: The Kirsten virus-transformed normal rat kidney (KNRK) epithelial cell line expressing wild-type rat PAR2 (KNRKrPAR2), validated previously for studies of receptor activation was used to evaluate the PAR2-regulating properties of the ISP1 by the methods described previously. Human embryonic kidney cells (HEK293) that express the SV40 T-antigen were kindly provided by Dr. Jonathan Lytton, University of Calgary, Faculty of Medicine, Calgary (Alberta) Canada. The human HEK293 cells, that constitutively express both PAR1 and PAR2, were grown under similar conditions as described for the KNRK cells, but in the absence of geneticin, as outlined for the PAR-mediated calcium signaling procedure described previously. All cells were sub-cultured by dissociation in an isotonic EDTA/saline solution, pH 7.4, without the use of trypsin, to avoid cleavage of PARs.
Cell lines (grown to about 85% confluence and disaggregated with calcium-free isotonic phosphate-buffered saline containing 0.2 mM EDTA) and rat platelets (harvested from platelet-rich anti-coagulated plasma) were prepared and used as previously described. Cells were incubated for 25 min at room temperature with Fluo-3 acetoxymethyl ester (final concentration, 22 µM) along with 0.4 mM sulfinpyrazone. Cells were washed twice by centrifugation (using the following buffer without calcium) and resuspended in the calcium signaling buffer: 150 mM NaCl, 3 mM KCl, 1.5 mM CaCl2, 20 mM HEPES, 10 mM dextrose, and 0.25 mM sulfinpyrazone, pH 7.4.
Fluorescence was measured at 24 °C with an excitation wavelength of 480 nm and an emission recorded at 530 nm using an Aminco Bowman Series 2 Luminescence spectrometer (ThermoSpectronic Model FA354, Spectronic Unicam, Rochester, NY). The fluorescence signals caused by the addition of test agonists (trypsin, PAR-activating peptide or rISP1, added to 2 ml of a cell suspension of ~3 x 10^5 cells/ml) were compared with the fluorescence peak height yielded by replicate cell suspensions treated with 2 µM ionophore A23187. This concentration of A23187 was at the plateau of its concentration-response curve for a fluorescence response in Fluo-3-loaded cultured cells. Under these conditions, the calculated values for intracellular calcium in the HEK and KNRK cells were [picture] […]
Previous work has shown that the fluorescence response of a cell preparation, as a percentage relative to the signal generated by 2 µM A23187, is a valid reference standard for the comparative determination of calcium signals for all PAR agonists. The cellular calcium response was therefore recorded as a percentage of the response generated by 2 µM ionophore A23187 [6]. […]
Receptor activation was monitored as an enzyme-stimulated increase in fluorescence emission (E530). […]

B1: ISP1: recombinant implantation serine proteinase 1 expressed in Pichia pastoris, also known as Mouse Prss28 (protein, UniProt Q924N9 27-274, looked up)
Serine protease 28: KPVGIVGGQRTPPGKWPWQVSLRMYSYEVNSWVHICGGSIIHPQWILTAAHCIQSQDADPAVYRVQVGEVYLYKEQELLNISRIIIHPDYNDVSKRFDLALMQLTALLVTSTNVSPVSLPKDSSTFDSTDQCWLVGWGNLLQRVPLQPPYQLHEVKIPIQDNKSCKRAYRKKSSDEHKAVAIFDDMLCAGTSGRGPCFGDSGGPLVCWKSNKWIQVGVVSKGIDCSNNLPSIFSRVQSSLAWIHQHIQ
modifications: recombinant, Pichia pastoris-expressed
notes: recombinant implantation serine proteinase 1 expressed in Pichia pastoris, also known as Mouse Prss28
SLIGRL-NH2 (10 µM), concentration-dependent
  Cellular response to PAR2-activating peptide after ISP1 pre-treatment: diminished
Enzyme alone
  Activation of a calcium signal via PAR2: did not activate a calcium signal
pre-treatment with 5 Units/ml ISP1, then trypsin (1.0 units/ml)
  residual PAR2 activity triggered by trypsin: ~80%
pre-treatment with 20 units ISP1/ml, then trypsin (1.0 units/ml)
  residual PAR2 activity (% of control): ~40%
